Data on twelve molecules can be found in patent EP4242303A1 (Novozymes A/S, dated 2023).

Assay in all cases: cell-based or functional assay
For test [1], the target named is T1, deamidase polypeptide from Chryseobacterium sp-62563 (deamidase domain of the pro-form SEQ ID NO: 5) (Chryseobacterium sp-62563).
T1 chain: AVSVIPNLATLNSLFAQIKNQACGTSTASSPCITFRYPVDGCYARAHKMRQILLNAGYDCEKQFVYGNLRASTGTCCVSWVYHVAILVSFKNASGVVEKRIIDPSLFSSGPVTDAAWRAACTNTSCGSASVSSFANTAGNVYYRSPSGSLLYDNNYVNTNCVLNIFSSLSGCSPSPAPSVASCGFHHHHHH

The target in test [2] is T1, deamidase polypeptide from ….
Test [3] has the same target.
Test [4] shares this target.
The target in test [5] is T2, deamidase polypeptide from Chryseobacterium culicis (deamidase domain of the fusion polypeptide SEQ ID NO: 15) (Chryseobacterium culicis).
T2 chain: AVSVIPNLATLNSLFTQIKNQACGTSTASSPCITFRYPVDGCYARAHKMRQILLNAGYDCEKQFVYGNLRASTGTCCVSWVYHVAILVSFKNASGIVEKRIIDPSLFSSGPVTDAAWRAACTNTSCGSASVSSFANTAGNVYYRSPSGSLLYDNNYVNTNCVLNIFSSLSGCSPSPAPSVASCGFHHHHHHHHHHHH

The target in test [6] is T3, deamidase polypeptide from Chryseobacterium defluvii (deamidase domain of the fusion polypeptide SEQ ID NO: … (Chryseobacterium defluvii)).
T3 chain: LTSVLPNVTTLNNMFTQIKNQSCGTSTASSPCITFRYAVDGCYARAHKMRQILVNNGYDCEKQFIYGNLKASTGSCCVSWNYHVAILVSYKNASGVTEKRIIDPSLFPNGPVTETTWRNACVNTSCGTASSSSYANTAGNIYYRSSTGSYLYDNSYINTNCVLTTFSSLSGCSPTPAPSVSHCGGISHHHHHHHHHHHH

The target of test [7] is T4, deamidase polypeptide from Chryseobacterium gambrini (deamidase domain of the fusion polypeptide SEQ ID NO: … (Chryseobacterium gambrini)).
T4 chain: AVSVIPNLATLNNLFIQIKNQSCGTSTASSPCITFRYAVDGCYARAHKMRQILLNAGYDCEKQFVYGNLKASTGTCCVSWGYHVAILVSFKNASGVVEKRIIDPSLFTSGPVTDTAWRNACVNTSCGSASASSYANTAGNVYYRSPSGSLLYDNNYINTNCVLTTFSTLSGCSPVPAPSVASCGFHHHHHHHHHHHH

Where two headings read alike, the source gives them in different places.

B1: propeptide from Chryseobacterium sp-62563 (wildtype propeptide domain of the protein glutamine deamidase pro-form SEQ ID NO: 5) (other)
chain: NQDPNLVAKESNETAMKDFGKTVPVGIEKEDGKFKISFMVTAQPYEIKDSKENAAYISMIKTAVENETPIHVFLKANTNEIAKVDKATDDDIRYFKSVFTKEVKEENRK
For the molecule B1, in test [1], the “NanoDSF thermal unfolding temperature” value turned out to be 85.3 °C.

B2: variant deamidase propeptide F99G of Chryseobacterium sp-62563 (SEQ ID NO: 2) (other)
chain: NQDPNLVAKESNETAMKDFGKTVPVGIEKEDGKFKISFMVTAQPYEIKDSKENAAYISMIKTAVENETPIHVFLKANTNEIAKVDKATDDDIRYFKSVGTKEVKEENRK
Turning to B2, in test [2], the “NanoDSF thermal unfolding temperature” value was determined as 74.1 °C. In addition, the Leakage activity in test [3] is 20%. Also, in test [4], the “Relative activity of "activated" sample (% initial rate)” value (shortened to “Relative activity … (% initial rate)”) was at least 100%.

B3: variant deamidase propeptide F38C of Chryseobacterium sp-62563 (SEQ ID NO: 2) (other)
chain: NQDPNLVAKESNETAMKDFGKTVPVGIEKEDGKFKISCMVTAQPYEIKDSKENAAYISMIKTAVENETPIHVFLKANTNEIAKVDKATDDDIRYFKSVFTKEVKEENRK
Regarding B3, the “NanoDSF thermal unfolding temperature” value in test [2] amounted to 76.2 °C. Moreover, the Leakage activity in test [3] is 26%. Besides, the “Relative activity … (% initial rate)” value in test [4] is at least 100%.

B4: variant deamidase propeptide Y45T of Chryseobacterium sp-62563 (SEQ ID NO: 2) (other)
chain: NQDPNLVAKESNETAMKDFGKTVPVGIEKEDGKFKISFMVTAQPTEIKDSKENAAYISMIKTAVENETPIHVFLKANTNEIAKVDKATDDDIRYFKSVFTKEVKEENRK
For the molecule B4, the “NanoDSF thermal unfolding temperature” value in test [2] is 73.7 °C. Besides, the Leakage activity in test [3] was found to be 2%. Besides, the “Relative activity … (% initial rate)” value in test [4] was at least 100%.

B5: variant deamidase propeptide V23S of Chryseobacterium sp-62563 (SEQ ID NO: 2) (other)
chain: NQDPNLVAKESNETAMKDFGKTSPVGIEKEDGKFKISFMVTAQPYEIKDSKENAAYISMIKTAVENETPIHVFLKANTNEIAKVDKATDDDIRYFKSVFTKEVKEENRK
Take B5: the “NanoDSF thermal unfolding temperature” value in test [2] was 69.8 °C. This molecule showed a Leakage activity in test [3] of 10%. Moreover, the “Relative activity … (% initial rate)” value in test [4] is at least 100%.

B6: variant deamidase propeptide Y94P of Chryseobacterium sp-62563 (SEQ ID NO: 2) (other)
chain: NQDPNLVAKESNETAMKDFGKTVPVGIEKEDGKFKISFMVTAQPYEIKDSKENAAYISMIKTAVENETPIHVFLKANTNEIAKVDKATDDDIRPFKSVFTKEVKEENRK
As for B6, the “NanoDSF thermal unfolding temperature” value in test [2] came to 75.2 °C. Moreover, the Leakage activity in test [3] was determined as 23%. In addition, in test [4], the “Relative activity … (% initial rate)” value was at least 100%.

B7: variant deamidase propeptide F99K of Chryseobacterium sp-62563 (SEQ ID NO: 2) (other)
chain: NQDPNLVAKESNETAMKDFGKTVPVGIEKEDGKFKISFMVTAQPYEIKDSKENAAYISMIKTAVENETPIHVFLKANTNEIAKVDKATDDDIRYFKSVKTKEVKEENRK
Take B7: the “NanoDSF thermal unfolding temperature” value in test [2] turned out to be 75.4 °C. In addition, the Leakage activity in test [3] is 32%. Moreover, the “Relative activity … (% initial rate)” value in test [4] was at least 100%.

B8: variant deamidase propeptide F99A of Chryseobacterium sp-62563 (SEQ ID NO: 2) (other)
chain: NQDPNLVAKESNETAMKDFGKTVPVGIEKEDGKFKISFMVTAQPYEIKDSKENAAYISMIKTAVENETPIHVFLKANTNEIAKVDKATDDDIRYFKSVATKEVKEENRK
As to B8, the “NanoDSF thermal unfolding temperature” value in test [2] is 76.4 °C. Also, in test [3], the Leakage activity stood at 20%. In addition, the “Relative activity … (% initial rate)” value in test [4] was at least 100%.

B9: variant deamidase propeptide Y45G of Chryseobacterium sp-62563 (SEQ ID NO: 2) (other)
chain: NQDPNLVAKESNETAMKDFGKTVPVGIEKEDGKFKISFMVTAQPGEIKDSKENAAYISMIKTAVENETPIHVFLKANTNEIAKVDKATDDDIRYFKSVFTKEVKEENRK
As for B9, the “NanoDSF thermal unfolding temperature” value in test [2] came out at 65.2 °C. The Leakage activity in test [3] is 2%. Further, the “Relative activity … (% initial rate)” value in test [4] was at least 100%.

B10: propeptide from Chryseobacterium culicis (propeptide domain of the fusion polypeptide SEQ ID NO: 15) (other)
chain: NQDPNLVAKESNEIAMKDFGKTVPVGIEKEEGKFKVSFMVSAQPYHIKDSKENAGYISMIRQAVENETPVHIFLKTNTNEIAKVDKPTDDDIRYFKSVFTKEVKEENRK
As for B10, the “NanoDSF thermal unfolding temperature” value in test [5] was determined as 85.2 °C.

B11: propeptide from Chryseobacterium defluvii (propeptide domain of the fusion polypeptide SEQ ID NO: 20) (other)
chain: ATNQDVVGKENTSNHVAARDFGKTVPVGINEENGTLKVSFILSAQFYEIKPSKENEEYISLIRQAIQNESPIHVFMKLNSNEIVKVEKGTEEDVKYFRSILTKEVKEENRK
Take B11: in test [6], the “NanoDSF thermal unfolding temperature” value was 89 °C.

B12: propeptide from Chryseobacterium gambrini (propeptide domain of the fusion polypeptide SEQ ID NO: 10) (other)
chain: NQDPNLVVKENNENAMRDFGSTIPVGIQKEGNVLKVSFIISAQFYEIKDSKENEAFISMIKSAIENETPVHVFLKKNSNEIAKVEKATDEDVTYFKSIFTKEVKEENRK
Regarding B12, the “NanoDSF thermal unfolding temperature” value in test [7] is 89.3 °C.
